In paper PMC6152381, “The C5 Variant of the Butyrylcholinesterase Tetramer Includes a Noncovalently Bound 60 kDa Lamellipodin Fragment” (Molecules : A Journal of Synthetic Chemistry and Natural …, 2017):

What was measured:
[1] = target: mouse anti-human BChE monoclonal antibody B2 18-5 (mouse); test: capture on immobilised antibody, activity assay of the unbound supernatant; hupresin-purified BChE (C4 and C5) in 0.02 M procaine, 0.02 M TrisCl pH 7.5 rotated with 0.04 mL B2 18-5 Sepharose beads at room temperature for 4 h
mouse anti-human BChE monoclonal antibody B2 18-5 (mouse), sequence (heavy, as listed by the source, chain 1 of 2): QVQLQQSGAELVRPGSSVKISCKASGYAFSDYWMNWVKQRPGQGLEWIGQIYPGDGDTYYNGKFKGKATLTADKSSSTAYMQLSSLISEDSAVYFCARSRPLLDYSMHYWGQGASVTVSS
mouse anti-human BChE monoclonal antibody B2 18-5 (mouse), sequence (light, as listed by the source, chain 2 of 2): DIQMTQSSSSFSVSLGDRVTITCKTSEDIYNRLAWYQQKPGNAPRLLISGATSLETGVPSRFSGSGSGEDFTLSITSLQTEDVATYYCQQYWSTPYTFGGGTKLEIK

[2] = target: the molecule itself; test: native gel or EMSA; pure human BChE from Cohn Fraction IV-4 on a 4-30% nondenaturing polyacrylamide gradient gel, 4 °C, stained for BChE activity

Q: “human butyrylcholinesterase (BChE) (from UniProt P06276 29-602) (enzyme)” was tested. Which percent bound [1] did it give?
A: 97%

B1: human butyrylcholinesterase (BChE) (enzyme, human (endogenous in plasma), UniProt P06276 29-602, looked up)
chain: EDDIIIATKNGKVRGMNLTVFGGTVTAFLGIPYAQPPLGRLRFKKPQSLTKWSDIWNATKYANSCCQNIDQSFPGFHGSEMWNPNTDLSEDCLYLNVWIPAPKPKNATVLIWIYGGGFQTGTSSLHVYDGKFLARVERVIVVSMNYRVGALGFLALPGNPEAPGNMGLFDQQLALQWVQKNIAAFGGNPKSVTLFGESAGAASVSLHLLSPGSHSLFTRAILQSGSFNAPWAVTSLYEARNRTLNLAKLTGCSRENETEIIKCLRNKDPQEILLNEAFVVPYGTPLSVNFGPTVDGDFLTDMPDILLELGQFKKTQILVGVNKDEGTAFLVYGAPGFSKDNNSIITRKEFQEGLKIFFPGVSEFGKESILFHYTDWVDDQRPENYREALGDVVGDYNFICPALEFTKKFSEWGNNAFFYYFEHRSSKLPWPEWMGVMHGYEIEFVFGLPLERRDNYTKAEEILSRSIVKRWANFAKYGNPNETQNNSTSWPVFKSTEQKYLTLNTESTRIMTKLRAQQCRFWTSFFPKVLEMTGNIDEAEWEWKAGFHRWNNYMMDWKNQFNDYTSKKESCVGL
modifications: 9 N-linked glycans
notes: each subunit has 574 amino acids; forty residues at the C-terminus are the tetramerization domain; also called C4; BChE tetramer; source: also purified from Cohn Fraction IV-4 (Q-ceramic ion exchange, hupresin)
Q: Does B1 bind [2]?
A: binds
